The supplement of paper PMC9876800

Test system: peptide library, one residue held at a place counted from the S/T acceptor
Experiment: relative phosphorylation of the sub-library (ratio to the mean residue at this position); higher = residue favoured
Settings: human
Summary of the method: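 Human or orthologue kinase constructs, purified and recombinant, were incubated under kinase-specific conditions in 384-well plates with biotinylated degenerate peptide sub-libraries. Each sub-library fixed one residue at one position around a central Ser/Thr. Incubations lasted 90 min with peptides at 50 μM and 50 μM ATP spiked with γ-32P-ATP, after which spots on streptavidin membranes were phosphorimaged and quantified by densitometry. Relative sub-library phosphorylation is a ratio to the mean residue at that position.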

Sequence of TGFBR2, construct: aa190-end (P37173 190-567, looked up): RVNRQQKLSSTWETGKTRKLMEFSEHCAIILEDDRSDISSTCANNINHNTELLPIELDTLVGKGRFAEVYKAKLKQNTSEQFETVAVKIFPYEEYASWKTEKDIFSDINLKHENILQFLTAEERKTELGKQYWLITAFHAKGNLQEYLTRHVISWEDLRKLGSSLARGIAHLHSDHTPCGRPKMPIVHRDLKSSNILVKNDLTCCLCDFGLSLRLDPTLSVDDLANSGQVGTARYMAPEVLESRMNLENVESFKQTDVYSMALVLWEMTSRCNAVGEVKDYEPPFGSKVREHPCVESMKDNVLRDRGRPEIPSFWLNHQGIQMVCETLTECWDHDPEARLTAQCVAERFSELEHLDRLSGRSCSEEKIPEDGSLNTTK
Sequence of TLK1, construct: Full length (Q9UKI8 whole entry, looked up): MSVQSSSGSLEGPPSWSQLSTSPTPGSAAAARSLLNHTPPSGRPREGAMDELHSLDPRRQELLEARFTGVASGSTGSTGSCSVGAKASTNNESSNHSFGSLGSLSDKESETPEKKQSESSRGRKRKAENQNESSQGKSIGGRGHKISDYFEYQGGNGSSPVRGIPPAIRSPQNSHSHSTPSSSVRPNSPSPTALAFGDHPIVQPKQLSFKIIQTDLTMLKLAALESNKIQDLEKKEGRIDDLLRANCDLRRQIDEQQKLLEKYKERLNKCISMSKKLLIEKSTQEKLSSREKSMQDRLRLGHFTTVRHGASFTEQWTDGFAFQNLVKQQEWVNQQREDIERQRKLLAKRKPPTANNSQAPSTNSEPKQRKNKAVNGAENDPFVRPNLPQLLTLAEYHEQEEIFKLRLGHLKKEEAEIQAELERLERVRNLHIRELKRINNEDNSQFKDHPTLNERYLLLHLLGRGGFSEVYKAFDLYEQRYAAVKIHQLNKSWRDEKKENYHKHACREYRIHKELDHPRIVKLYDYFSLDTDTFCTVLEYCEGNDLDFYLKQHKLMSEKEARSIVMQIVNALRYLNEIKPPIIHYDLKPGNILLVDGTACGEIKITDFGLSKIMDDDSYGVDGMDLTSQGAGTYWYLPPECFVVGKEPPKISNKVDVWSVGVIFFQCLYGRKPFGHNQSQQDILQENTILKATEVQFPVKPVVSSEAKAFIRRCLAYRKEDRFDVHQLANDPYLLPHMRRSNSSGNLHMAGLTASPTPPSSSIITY

SRPK2, construct: Full length (from UniProt P78362)
relative phosphorylation
Settings | at +1 | at +2 | at +3 | at +4 | at -1 | at -2 | at -3 | at -4 | at -5
A fixed | 0.712 | 1.14 | 0.669 | 0.878 | 0.911 | 1.6 | 0.473 | 0.89 | 1.01
D fixed | 0.338 | 1.38 | 0.556 | 0.992 | 0.577 | 2.3 | 0.364 | 0.723 | 0.669
E fixed | 0.495 | 1.2 | 0.406 | 0.747 | 0.626 | 1.46 | 0.305 | 0.685 | 0.713
F fixed | 0.35 | 1.12 | 0.427 | 0.715 | 0.468 | 0.64 | 0.265 | 0.697 | 0.971
G fixed | 0.597 | 0.77 | 0.921 | 1.16 | 0.901 | 1.11 | 0.363 | 0.818 | 1.12
H fixed | 0.663 | 1.01 | 0.699 | 1.11 | 1.6 | 1.56 | 0.44 | 1.11 | 1.15
I fixed | 0.667 | 0.647 | 0.369 | 0.783 | 0.361 | 0.298 | 0.222 | 0.549 | 0.593
K fixed | 1.6 | 2.02 | 1.29 | 1.51 | 2.2 | 0.995 | 0.918 | 1.71 | 1.75
L fixed | 0.852 | 0.772 | 0.407 | 0.875 | 0.671 | 0.361 | 0.232 | 0.644 | 0.648
M fixed | 0.839 | 0.547 | 0.383 | 0.794 | 0.693 | 0.538 | 0.288 | 0.719 | 0.754
N fixed | 1.11 | 0.934 | 0.666 | 1.02 | 1.09 | 1.22 | 0.354 | 0.988 | 0.999
P fixed | 4.58 | 1.22 | 1.72 | 1.06 | 1.44 | 0.822 | 0.347 | 1.84 | 0.758
Q fixed | 1.08 | 0.939 | 0.687 | 1.07 | 1.66 | 0.714 | 0.528 | 0.956 | 0.834
R fixed | 1.23 | 1.13 | 6.39 | 1.59 | 1.92 | 1.63 | 11 | 2.28 | 2.36
V fixed | 1.07 | 0.976 | 0.442 | 0.815 | 0.726 | 0.449 | 0.246 | 0.696 | 0.769
W fixed | 0.407 | 0.581 | 0.502 | 1.03 | 0.522 | 0.614 | 0.351 | 0.898 | 1.07
Y fixed | 0.412 | 0.618 | 0.474 | 0.863 | 0.629 | 0.695 | 0.319 | 0.794 | 0.829
pThr fixed | 0.513 | 0.839 | 0.67 | 0.956 | 0.411 | 0.555 | 0.363 | 0.65 | 0.55
pTyr fixed | 0.696 | 0.733 | 0.646 | 0.951 | 0.763 | 1.09 | 0.45 | 1.25 | 0.809

TGFBR2, construct: aa190-end (from UniProt P37173)
relative phosphorylation
Settings | at +1 | at +2 | at +3 | at +4 | at -1 | at -2 | at -3 | at -4 | at -5
A fixed | 0.597 | 1.09 | 0.846 | 0.874 | 0.646 | 0.441 | 0.835 | 0.987 | 1
D fixed | 0.508 | 0.616 | 0.509 | 0.57 | 0.715 | 4.02 | 1.25 | 1.01 | 0.775
E fixed | 0.77 | 0.466 | 0.485 | 0.529 | 0.775 | 5.47 | 1.24 | 0.907 | 0.713
F fixed | 1.27 | 0.826 | 1.04 | 0.789 | 1.02 | 0.412 | 0.859 | 0.952 | 0.97
G fixed | 0.63 | 1.36 | 1.29 | 1.08 | 0.67 | 0.665 | 1.05 | 1.08 | 1.11
H fixed | 0.872 | 1.16 | 1.18 | 1.09 | 1.04 | 0.478 | 0.882 | 1.13 | 1.1
I fixed | 1.69 | 1.1 | 1.05 | 1.06 | 0.757 | 0.327 | 0.748 | 0.851 | 0.9
K fixed | 0.531 | 1.26 | 1.12 | 1.43 | 1.03 | 0.447 | 0.855 | 0.91 | 1.2
L fixed | 1.32 | 0.584 | 1.07 | 0.839 | 1.38 | 0.366 | 0.717 | 0.814 | 0.901
M fixed | 2.09 | 0.826 | 0.922 | 0.919 | 1.34 | 0.484 | 0.907 | 0.872 | 0.809
N fixed | 0.801 | 0.891 | 0.941 | 0.85 | 0.812 | 0.877 | 0.982 | 1.08 | 0.908
P fixed | 0.271 | 0.89 | 1.12 | 1.33 | 1.1 | 0.365 | 1.09 | 1 | 0.95
Q fixed | 1.36 | 1.08 | 0.778 | 0.932 | 1.01 | 0.598 | 0.985 | 0.898 | 0.848
R fixed | 0.834 | 1.36 | 1.32 | 1.23 | 0.911 | 0.886 | 1.72 | 1 | 1.17
V fixed | 1.36 | 1.18 | 1.01 | 0.964 | 1.11 | 0.332 | 0.794 | 0.897 | 0.933
W fixed | 0.946 | 1.29 | 1.18 | 1.47 | 1.19 | 0.419 | 1.12 | 1.59 | 1.58
Y fixed | 1.14 | 1.02 | 1.15 | 1.06 | 1.49 | 0.41 | 0.973 | 1.02 | 1.13
pThr fixed | 1.55 | 0.529 | 0.488 | 0.539 | 0.594 | 1.2 | 0.884 | 0.863 | 0.765
pTyr fixed | 0.53 | 0.432 | 0.685 | 0.483 | 0.951 | 0.441 | 0.778 | 0.63 | 0.746

TLK1, construct: Full length (from UniProt Q9UKI8)
relative phosphorylation
Settings | at +1 | at +2 | at +3 | at +4 | at -1 | at -2 | at -3 | at -4 | at -5
A fixed | 0.502 | 0.943 | 1.34 | 0.901 | 1.02 | 1.28 | 1.23 | 0.986 | 0.846
D fixed | 0.279 | 1.17 | 0.745 | 0.602 | 2.36 | 3.12 | 2.28 | 1.26 | 0.993
E fixed | 0.353 | 0.499 | 0.939 | 0.52 | 1.98 | 3.77 | 1.44 | 1.01 | 0.812
F fixed | 0.586 | 1.4 | 1.32 | 1.77 | 0.517 | 0.384 | 0.887 | 1.51 | 1.46
G fixed | 0.296 | 0.832 | 1.13 | 0.978 | 0.518 | 0.875 | 0.741 | 0.765 | 0.693
H fixed | 0.917 | 1.63 | 1.06 | 0.957 | 1.08 | 0.843 | 1.14 | 1.12 | 0.909
I fixed | 1.06 | 0.658 | 0.707 | 0.968 | 0.717 | 0.384 | 0.688 | 1.24 | 1.06
K fixed | 0.848 | 0.636 | 0.646 | 0.891 | 1.02 | 0.512 | 0.856 | 0.757 | 0.952
L fixed | 1.49 | 1.02 | 0.72 | 1.02 | 0.887 | 0.371 | 0.679 | 0.984 | 0.936
M fixed | 2.43 | 1.6 | 0.993 | 0.964 | 0.751 | 0.588 | 0.907 | 0.896 | 0.826
N fixed | 1.66 | 0.582 | 0.636 | 0.674 | 1.44 | 1.35 | 1.09 | 0.598 | 0.609
P fixed | 0.217 | 0.821 | 1.29 | 1.38 | 0.364 | 0.484 | 0.856 | 0.554 | 0.897
Q fixed | 2.14 | 0.964 | 0.808 | 0.722 | 0.808 | 1.11 | 0.775 | 0.871 | 0.697
R fixed | 1.98 | 0.664 | 0.848 | 0.815 | 1.27 | 0.504 | 1.01 | 0.795 | 1.32
V fixed | 0.996 | 0.569 | 0.809 | 0.81 | 0.789 | 0.497 | 0.659 | 1.21 | 1.16
W fixed | 0.669 | 2.09 | 1.6 | 1.77 | 0.633 | 0.46 | 0.836 | 1.26 | 1.43
Y fixed | 0.577 | 0.931 | 1.41 | 1.26 | 0.831 | 0.47 | 0.932 | 1.2 | 1.41
pThr fixed | 0.472 | 0.804 | 0.79 | 0.807 | 0.694 | 1.76 | 1.85 | 1.18 | 0.601
pTyr fixed | 0.518 | 1.39 | 1.48 | 1.08 | 1.61 | 2.32 | 1.4 | 1.55 | 1.68
